# Laboratory results as given in patent US20260166084A1 (published 2026).
# What was measured:
# [1] = biological target: complex formed between CRBN/DDB1 and pomalidomide (UniProt Q96SW2 1-442; Q16531 2-1140); experiment: TR-FRET displacement; pomalidomide
# [2] = biological target: complex formed between CRBN/DDB1 and lenalidomide (UniProt Q96SW2 1-442; Q16531 2-1140); experiment: TR-FRET displacement; lenalidomide
# [3] = biological target: complex formed between CRBN/DDB1 and iberdomide (UniProt Q96SW2 1-442; Q16531 2-1140); experiment: TR-FRET displacement; iberdomide
# complex formed between CRBN/DDB1 and iberdomide, sequence (Q96SW2 whole entry, chain 1 of 2): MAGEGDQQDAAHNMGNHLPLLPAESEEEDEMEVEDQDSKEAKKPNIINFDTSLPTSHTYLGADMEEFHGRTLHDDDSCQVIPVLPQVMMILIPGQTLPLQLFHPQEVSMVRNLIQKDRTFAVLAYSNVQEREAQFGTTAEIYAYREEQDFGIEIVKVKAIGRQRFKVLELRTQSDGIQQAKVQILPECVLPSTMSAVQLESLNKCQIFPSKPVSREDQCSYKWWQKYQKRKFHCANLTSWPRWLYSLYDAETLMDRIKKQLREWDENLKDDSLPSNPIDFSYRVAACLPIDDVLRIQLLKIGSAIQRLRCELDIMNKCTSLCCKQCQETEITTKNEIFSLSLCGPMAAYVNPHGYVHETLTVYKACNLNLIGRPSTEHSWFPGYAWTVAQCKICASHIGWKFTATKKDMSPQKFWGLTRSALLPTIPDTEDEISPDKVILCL
# complex formed between CRBN/DDB1 and iberdomide, sequence (Q16531 2-1140, chain 2 of 2): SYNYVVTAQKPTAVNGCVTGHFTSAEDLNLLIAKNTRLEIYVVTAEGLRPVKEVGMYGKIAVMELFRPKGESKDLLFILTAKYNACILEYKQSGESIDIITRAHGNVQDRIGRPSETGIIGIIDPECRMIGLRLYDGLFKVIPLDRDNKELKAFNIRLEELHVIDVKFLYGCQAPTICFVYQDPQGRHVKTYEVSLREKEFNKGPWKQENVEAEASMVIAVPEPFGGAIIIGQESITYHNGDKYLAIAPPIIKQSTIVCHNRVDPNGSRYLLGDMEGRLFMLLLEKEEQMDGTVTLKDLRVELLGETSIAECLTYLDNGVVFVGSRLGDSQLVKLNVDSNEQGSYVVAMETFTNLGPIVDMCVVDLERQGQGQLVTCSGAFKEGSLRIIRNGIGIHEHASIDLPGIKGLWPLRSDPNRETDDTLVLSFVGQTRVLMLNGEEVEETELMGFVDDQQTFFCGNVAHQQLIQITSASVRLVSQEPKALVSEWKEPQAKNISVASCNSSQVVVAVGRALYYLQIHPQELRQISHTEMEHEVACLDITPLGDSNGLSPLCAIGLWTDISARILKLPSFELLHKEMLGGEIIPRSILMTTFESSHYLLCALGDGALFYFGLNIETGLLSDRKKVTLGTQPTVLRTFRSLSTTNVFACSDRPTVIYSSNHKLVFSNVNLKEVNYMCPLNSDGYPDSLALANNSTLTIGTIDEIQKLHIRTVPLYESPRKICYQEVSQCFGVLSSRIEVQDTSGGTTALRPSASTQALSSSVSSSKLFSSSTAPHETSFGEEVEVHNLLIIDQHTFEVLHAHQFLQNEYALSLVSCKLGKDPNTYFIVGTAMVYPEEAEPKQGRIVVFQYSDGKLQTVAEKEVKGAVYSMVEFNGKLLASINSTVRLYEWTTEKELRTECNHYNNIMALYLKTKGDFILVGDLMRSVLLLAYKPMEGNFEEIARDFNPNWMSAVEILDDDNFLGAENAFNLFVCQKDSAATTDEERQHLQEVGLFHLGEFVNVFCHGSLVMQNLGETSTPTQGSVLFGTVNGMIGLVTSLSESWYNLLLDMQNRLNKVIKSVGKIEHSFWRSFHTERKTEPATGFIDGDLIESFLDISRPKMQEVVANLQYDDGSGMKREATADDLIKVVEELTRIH
# complex formed between CRBN/DDB1 and lenalidomide, sequence (Q96SW2 whole entry, chain 1 of 2): as the sequence (Q96SW2 whole entry, chain 1 of 2) above
# complex formed between CRBN/DDB1 and lenalidomide, sequence (Q16531 2-1140, chain 2 of 2): as the sequence (Q16531 2-1140, chain 2 of 2) above
# complex formed between CRBN/DDB1 and pomalidomide, sequence (Q96SW2 whole entry, chain 1 of 2): as the sequence (Q96SW2 whole entry, chain 1 of 2) above
# complex formed between CRBN/DDB1 and pomalidomide, sequence (Q16531 2-1140, chain 2 of 2): as the sequence (Q16531 2-1140, chain 2 of 2) above
IC50 [1] [nM],IC50 [2] [nM],IC50 [3] [nM],Binder
834,860,556,iTAG2 (DCD23mut) (designed binder) PNVLMVHNESHTGEIPLQCEICGFTCEQAGNLLNHIELHSGEIPFKCHLCNYACRRRDAL
49.8,78.7,36.4,iTAG1 (DCD23) (designed binder) PNVLMVHKRSHTGERPLQCEICGFTCRQKGNLLRHIKLHSGEKPFKCHLCNYACRRRDAL
